T1: human EphA10 (Homo sapiens, UniProt Q5JZY3)
T1 construct: a protein of the extracellular region of each human Eph receptor fused with the SEAP protein and the His tag; made in house; host or cells: Expi293F cells (culture supernatant)
T1 sequence (Q5JZY3 34-565 limits assumed): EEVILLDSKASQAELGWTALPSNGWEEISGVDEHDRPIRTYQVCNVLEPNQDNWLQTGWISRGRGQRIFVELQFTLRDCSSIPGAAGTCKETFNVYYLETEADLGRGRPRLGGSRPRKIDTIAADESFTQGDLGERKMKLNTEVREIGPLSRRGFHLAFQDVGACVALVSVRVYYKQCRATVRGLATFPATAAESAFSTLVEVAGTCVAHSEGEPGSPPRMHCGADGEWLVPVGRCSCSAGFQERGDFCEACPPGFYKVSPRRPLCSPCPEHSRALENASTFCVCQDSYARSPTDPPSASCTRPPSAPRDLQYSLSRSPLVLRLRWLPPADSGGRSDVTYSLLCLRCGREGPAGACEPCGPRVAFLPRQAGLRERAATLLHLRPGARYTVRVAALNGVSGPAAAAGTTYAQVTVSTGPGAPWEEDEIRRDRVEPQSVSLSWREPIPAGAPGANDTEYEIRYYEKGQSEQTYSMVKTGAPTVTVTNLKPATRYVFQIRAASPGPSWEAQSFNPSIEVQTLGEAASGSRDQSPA

T2: human EphA3 (Homo sapiens, UniProt P29320)
T2 construct: a protein of the extracellular region of each human Eph receptor fused with the SEAP protein and the His tag; made in house; host or cells: Expi293F cells (culture supernatant)
T2 sequence (P29320 21-541 limits assumed): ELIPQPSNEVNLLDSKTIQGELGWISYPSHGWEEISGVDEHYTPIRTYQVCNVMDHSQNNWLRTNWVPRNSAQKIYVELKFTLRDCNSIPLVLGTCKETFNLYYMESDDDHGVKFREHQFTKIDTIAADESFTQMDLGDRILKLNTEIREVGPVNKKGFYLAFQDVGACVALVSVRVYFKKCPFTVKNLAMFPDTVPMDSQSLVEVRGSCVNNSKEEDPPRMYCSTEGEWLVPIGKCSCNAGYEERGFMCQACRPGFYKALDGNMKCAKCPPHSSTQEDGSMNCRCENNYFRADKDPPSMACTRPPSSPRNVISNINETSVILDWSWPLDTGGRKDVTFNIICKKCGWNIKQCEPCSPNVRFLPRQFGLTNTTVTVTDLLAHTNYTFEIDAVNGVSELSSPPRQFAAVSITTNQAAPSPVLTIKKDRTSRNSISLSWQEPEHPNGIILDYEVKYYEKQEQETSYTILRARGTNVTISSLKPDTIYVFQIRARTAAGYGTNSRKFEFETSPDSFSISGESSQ

T3: human EphB4 (Homo sapiens, UniProt P54760)
T3 construct: a protein of the extracellular region of each human Eph receptor fused with the SEAP protein and the His tag; made in house; host or cells: Expi293F cells
T3 sequence (P54760 16-539 limits assumed): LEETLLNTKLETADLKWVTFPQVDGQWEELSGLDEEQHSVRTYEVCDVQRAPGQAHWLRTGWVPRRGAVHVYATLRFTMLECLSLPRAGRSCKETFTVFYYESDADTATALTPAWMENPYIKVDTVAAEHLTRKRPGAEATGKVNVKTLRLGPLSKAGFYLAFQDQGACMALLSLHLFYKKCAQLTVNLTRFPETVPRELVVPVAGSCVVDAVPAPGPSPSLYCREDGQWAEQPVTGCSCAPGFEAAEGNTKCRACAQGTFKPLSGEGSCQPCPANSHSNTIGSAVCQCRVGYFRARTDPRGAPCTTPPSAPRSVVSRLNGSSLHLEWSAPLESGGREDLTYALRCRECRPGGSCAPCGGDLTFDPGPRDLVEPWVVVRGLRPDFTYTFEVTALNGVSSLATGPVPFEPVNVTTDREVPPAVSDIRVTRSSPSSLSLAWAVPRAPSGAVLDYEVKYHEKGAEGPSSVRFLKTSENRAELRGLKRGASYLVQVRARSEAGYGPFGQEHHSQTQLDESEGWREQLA


What was measured:
Test in all cases: Selectivity ELISA of humanized antibodies for human Eph receptor
Type in all cases: binding
human EphA10 = biological target: T1, human EphA10; details: coated protein 1 nM
Outline: (§1)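 Human Eph ECD-SEAP-His fusions, harvested after 5 days of Expi293F expression, are captured on anti-His-coated wells (1 nM final). Bound humanized antibody is detected with HRP anti-IgG and TMB at 450 nm.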

human EphA3 = biological target: T2, human EphA3; details: coated protein 1 nM
Outline: as §1

human EphA4 = biological target: T4, human EphA4 (Homo sapiens, UniProt P54764); details: coated protein 1 nM; reference set to 100%
T4 construct: made in house; not restated for the human SEAP-His protein
Outline: as §1

human EphB4 = biological target: T3, human EphB4; details: coated protein 1 nM
Outline: as §1

T4 sequence (P54764 20-547): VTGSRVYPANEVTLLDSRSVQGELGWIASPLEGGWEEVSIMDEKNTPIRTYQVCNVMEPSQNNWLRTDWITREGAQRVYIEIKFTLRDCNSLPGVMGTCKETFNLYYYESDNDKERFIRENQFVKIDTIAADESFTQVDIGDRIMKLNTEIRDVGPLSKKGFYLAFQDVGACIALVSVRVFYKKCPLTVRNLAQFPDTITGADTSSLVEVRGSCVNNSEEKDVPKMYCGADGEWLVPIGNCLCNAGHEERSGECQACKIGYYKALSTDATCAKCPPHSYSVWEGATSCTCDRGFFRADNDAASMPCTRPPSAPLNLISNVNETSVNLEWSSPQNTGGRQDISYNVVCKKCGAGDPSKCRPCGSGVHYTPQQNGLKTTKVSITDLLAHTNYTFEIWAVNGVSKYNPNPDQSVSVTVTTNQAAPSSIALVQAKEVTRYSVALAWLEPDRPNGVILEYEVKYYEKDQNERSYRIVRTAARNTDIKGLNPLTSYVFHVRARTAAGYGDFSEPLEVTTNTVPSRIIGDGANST

hEphA10-SEAP-: absorbance at 450 nm, percentage with respect to hEphA4-SEAP-His as 100% (human EphA10) [%]	hEphA3-SEAP-: absorbance at 450 nm, percentage with respect to hEphA4-SEAP-His as 100% (human EphA3) [%]	hEphA4-SEAP-: absorbance at 450 nm, percentage with respect to hEphA4-SEAP-His as 100% (human EphA4) [%]	hEphB4-SEAP-: absorbance at 450 nm, percentage with respect to hEphA4-SEAP-His as 100% (human EphB4) [%]	Molecule
6.0	6.1	100	6.0	153 (antibody, V domains shown, synthetic humanized antibody heavy chain variable region sequence; synthetic humanized antibody light chain variable region sequence) VH: QVQLVQSGSELKKPGASVKVSCKASGYTFTDYSMHWVRQAPGQGLKWMGWINTETGEPTYAQGFTGRFVFSLDTSVSTAYLQISSLKAEDTAVYYCARIPLYYYGSRYWYFDVWGQGTTVTVSS VL: DIQMTQSPSSLSASVGDRVTITCRASENIYRNLAWYQQKPGKAPKLLLYAATNLADGVPSRFSGSGSGTDYTLTISSLQSEDFATYYCQHFWGTPWTFGQGTKVEIK
6.6	6.9	100	7.4	151 (antibody, V domains shown, synthetic humanized antibody heavy chain variable region sequence; synthetic humanized antibody light chain variable region sequence) VH: QIQLVQSGSELKKPGASVKVSCKASGYTFTDYSMHWVRQAPGQGLKWMGWINTETGEPTYAQGFTGRFVFSLDTSVSTAYLQISSLKAEDTAVYYCARIPLYYYGSRYWYFDVWGQGTTVTVSS VL: DIQMTQSPSSLSASVGDRVTITCRASENIYRNLAWYQQKPGKAPKLLLYAATNLADGVPSRFSGSGSGTDYTLTISSLQSEDFATYYCQHFWGTPWTFGQGTKVEIK
5.9	6.2	100	6.4	154 (antibody, V domains shown, synthetic humanized antibody heavy chain variable region sequence; synthetic humanized antibody light chain variable region sequence) VH: QVQLVQSGSELKKPGASVKVSCKASGYTFTDYSMHWVRQAPGQGLEWMGWINTETGEPTYADDFKGRFVFSLDTSVSTAYLQISSLKAEDTAVYYCARIPLYYYGSRYWYFDVWGQGTTVTVSS VL: DIQMTQSPSSLSASVGDRVTITCRASENIYRNLAWYQQKPGKAPKLLLYAATNLADGVPSRFSGSGSGTDYTLTISSLQSEDFATYYCQHFWGTPWTFGQGTKVEIK
5.8	5.8	100	5.9	152 (antibody, V domains shown, synthetic humanized antibody heavy chain variable region sequence; synthetic humanized antibody light chain variable region sequence) VH: QVQLVQSGSELKKPGASVKVSCKASGYTFTDYSMHWVRQAPGQGLEWMGWINTETGEPTYAQGFTGRFVFSLDTSVSTAYLQISSLKAEDTAVYYCARIPLYYYGSRYWYFDVWGQGTTVTVSS VL: DIQMTQSPSSLSASVGDRVTITCRASENIYRNLAWYQQKPGKAPKLLLYAATNLADGVPSRFSGSGSGTDYTLTISSLQSEDFATYYCQHFWGTPWTFGQGTKVEIK

Continued, molecule first:

Molecule	hEphA10-SEAP-: absorbance at 450 nm, percentage with respect to hEphA4-SEAP-His as 100% (human EphA10) [%]	hEphA3-SEAP-: absorbance at 450 nm, percentage with respect to hEphA4-SEAP-His as 100% (human EphA3) [%]	hEphA4-SEAP-: absorbance at 450 nm, percentage with respect to hEphA4-SEAP-His as 100% (human EphA4) [%]	hEphB4-SEAP-: absorbance at 450 nm, percentage with respect to hEphA4-SEAP-His as 100% (human EphB4) [%]
138 (antibody, V domains shown, synthetic humanized antibody heavy chain variable region sequence; synthetic humanized antibody light chain variable region sequence) VH: QIQLVQSGSELKKPGASVKVSCKASGYTFTDYSMHWVRQAPGQGLKWMGWINTETGEPTYAQGFTGRFVFSLDTSVSTAYLQISSLKAEDTAVYYCARIPLYYYGSRYWYFDVWGQGTTVTVSS VL: DIQMTQSPSSLSASVGDRVTITCRASENIYRNLAWYQQKPGKAPKLLVYAATNLADGVPSRFSGSGSGTDYTLTISSLQPEDFATYYCQHFWGTPWTFGQGTKVEIK	5.0	4.9	100	5.2
141 (antibody, V domains shown, synthetic humanized antibody heavy chain variable region sequence; synthetic humanized antibody light chain variable region sequence) VH: QVQLVQSGSELKKPGASVKVSCKASGYTFTDYSMHWVRQAPGQGLEWMGWINTETGEPTYADDFKGRFVFSLDTSVSTAYLQISSLKAEDTAVYYCARIPLYYYGSRYWYFDVWGQGTTVTVSS VL: DIQMTQSPSSLSASVGDRVTITCRASENIYRNLAWYQQKPGKAPKLLVYAATNLADGVPSRFSGSGSGTDYTLTISSLQPEDFATYYCQHFWGTPWTFGQGTKVEIK	5.2	5.3	100	5.4
143 (antibody, V domains shown, synthetic humanized antibody heavy chain variable region sequence; synthetic humanized antibody light chain variable region sequence) VH: QIQLVQSGSELKKPGASVKVSCKASGYTFTDYSMHWVRQAPGQGLKWMGWINTETGEPTYADDFKGRFVFSLDTSVSTAYLQISSLKAEDTAVYYCARIPLYYYGSRYWYFDVWGQGTTVTVSS VL: DIQMTQSPSSLSASVGDRVTITCRASENIYRNLAWYQQKPGKAPKLLVYAATNLADGVPSRFSGSGSGTDYTLTISSLQPEDFATYYCQHFWGTPWTFGQGTKVEIK	5.2	5.6	100	5.9
142 (antibody, V domains shown, synthetic humanized antibody heavy chain variable region sequence; synthetic humanized antibody light chain variable region sequence) VH: QVQLVQSGSELKKPGASVKVSCKASGYTFTDYSMHWVRQAPGQGLKWMGWINTETGEPTYADDFKGRFVFSLDTSVSTAYLQISSLKAEDTAVYYCARIPLYYYGSRYWYFDVWGQGTTVTVSS VL: DIQMTQSPSSLSASVGDRVTITCRASENIYRNLAWYQQKPGKAPKLLVYAATNLADGVPSRFSGSGSGTDYTLTISSLQPEDFATYYCQHFWGTPWTFGQGTKVEIK	5.4	5.5	100	5.7

Reference: patent US10428140B2, “Anti-EphA4 antibody” (EISAI R&D MANAGEMENT CO., LTD., priority 2015, dated 2019)
